{"source": "patent US20250269058A1", "about": "“GENE THERAPY FOR TREATING NEURODEGENERATIVE DISEASES” (ABRAIN, priority 2021, published 2025)", "key": {"[1]": {"assay": "ThT assay of autoaggregation of human Tau 40 WT or Tau inhibitor", "type": "physicochemical", "experimental": "(§1) All inhibitor peptides were purchased from Biomatik. Dissolution was performed at a working concentration of 1.2 mM in deionized water, with a minimum purity of 95% or higher. Human Tau 40 WT was expressed by the pQE80 vector in BL21-DE3 E. coli cells grown to OD600=0.8 in LB medium. Cells were induced with 1 mM IPTG for 3 hours at 37° C. and further incubated for 4 hours, and then cultured E. coli cells were harvested by centrifugation at 5,000 rpm for 20 minutes. The obtained E. coli was resuspended in a dissolution buffer (50 mM NaH2PO4, NaCl 250 mM, 10 mM imidazole pH 8.0) and then dissolved by sonication. Cell lysates were purified by centrifugation at 15,000 rpm for 15 minutes, and 1 ml of 50% Ni-NTA slurry was added to 4 ml of the supernatant and shaken at 4° C. for 60 minutes (200 rpm on a rotator) to mix gently. […]\n(§2) Autoaggregation of human Tau 40 WT or Tau inhibitor was tested using 15 μM of human Tau 40 WT protein or 30 μM of inhibitor (SEQ ID NOs: 22 or 32), 8 μM heparin, and 50 μM ThT. ThT fluorescence was measured using a Biotek Synergy H1 reader at an excitation wavelength of 440 nm and emission wavelength of 485 nm. The reactions were incubated at 37° C., and measured every 15 minutes for 70 hours with orbital vibration of 425 cpm continuously. […]"}, "[2]": {"assay": "ThT assay of autoaggregation of Aβ42 WT or variant peptides", "type": "physicochemical", "details": "10 μM peptide in PBS, 50 μM ThT, 37° C.", "experimental": "HFIP was evaporated overnight in a fume hood and then transferred to SpeedVac for 1 hour to remove any remaining traces of HFIP, Tubes containing the peptide film were kept over desiccant at −20° C. until used. Immediately prior to experimental use, lyophilized peptides were dissolved in 0.1% NH4OH to a final concentration of 100 μM and sonicated for 10 minutes in a bath sonicator.\nThT fluorescence was measured using a Biotek Synergy H1 reader at an excitation wavelength of 440 nm and emission wavelength of 485 nm. Reactions were incubated at 37° C. and then shaken for 5 seconds every 10 minutes prior to reading the fluorescence."}, "human Tau 40 WT": {"molecular_target": "T1, human Tau 40 WT (Homo sapiens, UniProt P10636)", "T1 construct": "His tag (inferred from Ni-NTA purification and pQE80 vector); made in house; host or cells: E. coli BL21-DE3", "T1 sequence (P10636 1-441 isoform P10636-8)": "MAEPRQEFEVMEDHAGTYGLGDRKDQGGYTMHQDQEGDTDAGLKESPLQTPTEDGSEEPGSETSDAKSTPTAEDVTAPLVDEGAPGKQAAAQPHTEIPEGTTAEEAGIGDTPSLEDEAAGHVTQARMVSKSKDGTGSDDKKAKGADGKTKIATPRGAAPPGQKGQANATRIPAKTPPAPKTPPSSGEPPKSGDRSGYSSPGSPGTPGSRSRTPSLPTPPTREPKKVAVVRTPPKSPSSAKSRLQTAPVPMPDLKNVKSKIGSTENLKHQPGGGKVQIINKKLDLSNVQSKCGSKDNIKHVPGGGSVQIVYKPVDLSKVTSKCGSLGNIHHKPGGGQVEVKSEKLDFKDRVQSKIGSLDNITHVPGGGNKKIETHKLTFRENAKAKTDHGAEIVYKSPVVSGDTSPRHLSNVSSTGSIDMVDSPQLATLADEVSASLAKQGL", "assay": "ThT assay, inhibition of human Tau 40 WT autoaggregation by Tau inhibitor", "type": "biochemical", "details": "15 μM Tau protein and 30 μM inhibitor (1:2)", "experimental": "as §1, §2"}}}
{"substance": "Tau WT: Human Tau 40 WT protein expressed by the pQE80 vector in E. coli", "values": [{"measurement": "time to peak of ThT binding", "setting": "[1]; 1 nM of seed added to Tau WT", "result": "≤ 20", "unit": "h"}, {"measurement": "time to peak of ThT binding", "setting": "[1]; 15 μM human Tau 40 WT, 8 μM heparin, 50 μM ThT", "result": "≤ 70", "unit": "h"}]}
{"substance": "Aβ42 WT: wild-type Aβ42 peptide, synthetic, purchased from Biomatik", "values": [{"measurement": "autoaggregation in ThT assay", "setting": "[2]", "result": "generated aggregation"}]}
{"substance": "TVIVITLVMLKDVQMINKKLK (Tau inhibitor) [SEQ ID NO: 32]", "values": [{"measurement": "inhibition of Tau WT aggregation (competition assay)", "setting": "human Tau 40 WT", "result": "completely attenuated the aggregation of Tau WT"}]}
{"substance": "MDVQMINKKLK (Tau inhibitor) [SEQ ID NO: 22]", "values": [{"measurement": "inhibition of Tau WT aggregation (competition assay)", "setting": "human Tau 40 WT", "result": "completely attenuated the aggregation of Tau WT"}]}
